Measured values from paper PMC6409784, “Chlorambucil Conjugated Ugi Dendrimers with PAMAM-NH2 Core and Evaluation of Their Anticancer Activity” (Pharmaceutics, 2019).
Read-outs that look alike come from different tables or passages of the source.

Tests used:
Solubility of dendrimers = conditions: at 20 mg/mL
PC-3 cells [1] = conditions: read-out: IC50, CV assay, PC-3, 72 h
PC-3 cells [2] = conditions: read-out: IC50, MTT assay, PC-3, 72 h
NIH3T3 fibroblasts [3] = conditions: read-out: IC50 NIH3T3, MTT; NIH3T3 mouse fibroblasts, 72 h, MTT assay
NIH3T3 fibroblasts [4] = experiment: CV viability assay on non-cancerous fibroblasts; type: cell-based, mouse; conditions: at the IC50 determined for PC-3 (7.3 µM), CV and MTT, 72 h
PC-3 cells [5] = experiment: cells; conditions: Homo sapiens, PC-3, 72 h, read-out: IC50, CV assay, PC-3
PC-3 cells [6] = experiment: cells; conditions: Homo sapiens, PC-3, 72 h, read-out: IC50, MTT assay, PC-3
[7] = test system: PC-3 prostate cancer cell line; experiment: Viability by CV and MTT assays (fast screening / dose response); type: cell-based, human; conditions: 20 µM free chlorambucil, 72 h

Compound | Solubility (Solubility of dendrimers) | other results
COC(=O)CCCNC(=O)C(C(C)C)N(CCNC(=O)CCN(CCC(=O)NCCN(C(=O)CCCC[C@@H]1SC[C@@H]2NC(=O)N[C@@H]21)C(C(=O)NCCCC(=O)OC)C(C)C)CCN(CCC(=O)NCCN(C(=O)CCCC[C@@H]1SC[C@@H]2NC(=O)N[C@@H]21)C(C(=O)NCCCC(=O)OC)C(C)C)CCC(=O)NCCN(C(=O)CCCc1ccc(N(CCCl)CCCl)cc1)C(C(=O)NCCCC(=O)OC)C(C)C)C(=O)CCCC[C@@H]1SC[C@@H]2NC(=O)N[C@@H]21 (some centres unmarked) [Dendrimer 5a] | Low | 
CC(C)C(C(=O)NCCOCCOCCN)N(CCNC(=O)CCN(CCC(=O)NCCN(C(=O)CCCc1ccc(N(CCCl)CCCl)cc1)C(C(=O)NCCOCCOCCN)C(C)C)CCN(CCC(=O)NCCN(C(=O)CCCc1ccc(N(CCCl)CCCl)cc1)C(C(=O)NCCOCCOCCN)C(C)C)CCC(=O)NCCN(C(=O)CCCc1ccc(N(CCCl)CCCl)cc1)C(C(=O)NCCOCCOCCN)C(C)C)C(=O)CCCc1ccc(N(CCCl)CCCl)cc1 (centres unmarked) [Dendrimer 1b] | High | IC50 (PC-3 cells [1]): 3.65 ± 0.56 µM; IC50 (PC-3 cells [2]): 7.29 ± 1.18 µM; IC50 (NIH3T3 fibroblasts [3]): 74.4 ± 2.31 µM; effect on NIH3T3 cell growth (NIH3T3 fibroblasts [4]): did not affect NIH3T3 cell growth at all
CC(C)C(C(=O)NCCOCCOCCNC(=O)OC(C)(C)C)N(CCNC(=O)CCN(CCC(=O)NCCN(C(=O)CCCc1ccc(N(CCCl)CCCl)cc1)C(C(=O)NCCOCCOCCNC(=O)OC(C)(C)C)C(C)C)CCN(CCC(=O)NCCN(C(=O)CCCc1ccc(N(CCCl)CCCl)cc1)C(C(=O)NCCOCCOCCNC(=O)OC(C)(C)C)C(C)C)CCC(=O)NCCN(C(=O)CCCc1ccc(N(CCCl)CCCl)cc1)C(C(=O)NCCOCCOCCNC(=O)OC(C)(C)C)C(C)C)C(=O)CCCc1ccc(N(CCCl)CCCl)cc1 (centres unmarked) [Dendrimer 1a] | Low | 
CC(C)C(C(=O)NCCCC(=O)O)N(CCNC(=O)CCN(CCC(=O)NCCN(C(=O)CCCc1ccc(N(CCCl)CCCl)cc1)C(C(=O)NCCCC(=O)O)C(C)C)CCN(CCC(=O)NCCN(C(=O)CCCc1ccc(N(CCCl)CCCl)cc1)C(C(=O)NCCCC(=O)O)C(C)C)CCC(=O)NCCN(C(=O)CCCc1ccc(N(CCCl)CCCl)cc1)C(C(=O)NCCCC(=O)O)C(C)C)C(=O)CCCC[C@@H]1SC[C@@H]2NC(=O)N[C@@H]21 (some centres unmarked) [Dendrimer 3b] | High | 
COC(=O)CCCNC(=O)C(C(C)C)N(CCNC(=O)CCN(CCC(=O)NCCN(C(=O)CCCc1ccc(N(CCCl)CCCl)cc1)C(C(=O)NCCCC(=O)OC)C(C)C)CCN(CCC(=O)NCCN(C(=O)CCCc1ccc(N(CCCl)CCCl)cc1)C(C(=O)NCCCC(=O)OC)C(C)C)CCC(=O)NCCN(C(=O)CCCc1ccc(N(CCCl)CCCl)cc1)C(C(=O)NCCCC(=O)OC)C(C)C)C(=O)CCCc1ccc(N(CCCl)CCCl)cc1 (centres unmarked) [Dendrimer 2a] | Low | 
COC(=O)CCCNC(=O)C(C(C)C)N(CCNC(=O)CCN(CCC(=O)NCCN(C(=O)CCCc1ccc(N(CCCl)CCCl)cc1)C(C(=O)NCCCC(=O)OC)C(C)C)CCN(CCC(=O)NCCN(C(=O)CCCc1ccc(N(CCCl)CCCl)cc1)C(C(=O)NCCCC(=O)OC)C(C)C)CCC(=O)NCCN(C(=O)CCCc1ccc(N(CCCl)CCCl)cc1)C(C(=O)NCCCC(=O)OC)C(C)C)C(=O)CCCC[C@@H]1SC[C@@H]2NC(=O)N[C@@H]21 (some centres unmarked) [Dendrimer 3a] | Low | 
CC(C)C(C(=O)NCCCC(=O)O)N(CCNC(=O)CCN(CCC(=O)NCCN(C(=O)CCCC[C@@H]1SC[C@@H]2NC(=O)N[C@@H]21)C(C(=O)NCCCC(=O)O)C(C)C)CCN(CCC(=O)NCCN(C(=O)CCCC[C@@H]1SC[C@@H]2NC(=O)N[C@@H]21)C(C(=O)NCCCC(=O)O)C(C)C)CCC(=O)NCCN(C(=O)CCCc1ccc(N(CCCl)CCCl)cc1)C(C(=O)NCCCC(=O)O)C(C)C)C(=O)CCCC[C@@H]1SC[C@@H]2NC(=O)N[C@@H]21 (some centres unmarked) [Dendrimer 5b] | High | 
O=C(O)CCCc1ccc(N(CCCl)CCCl)cc1 [chlorambucil] |  | IC50 (PC-3 cells [5]): > 100 µM; IC50 (PC-3 cells [6]): > 100 µM; activity of free agent on PC-3 cells [7]: almost no activity
